The values that follow come from patent US12459987B2, “Monoclonal antibodies for prevention and treatment of herpes simplex viral infections” (priority 2019, dated 2025).

Substitutions are numbered along the chain they refer to.

Sequences and labels used below:
B1: HSV010-28: gB-1 specific mouse monoclonal IgG; IgH SEQ ID NO: 60, IgL SEQ ID NO: 62 (antibody, V domains shown)
VH: QIQLVQSGPELKKPGETVKISCKASGYTFTTYGMSWVKQAPGKGLKWMGWINTYSGVSTYADDFKGRFAFSLETSASTAYLQINNLKNEDTATYFCAQVNYAMDYWGQGTSVTVSSA
VL: DIVMTQSHKFLSTSVGDWVTITCKASQDVSTAVAWFQQKPGQSPKVLIYSASYRYTGVPDRFTGSGSGTDFTFTISSVQAEDLAVYYCQQHYSTPRTFGGGTKLEIKR
modifications: HSV010-28 heavy chain; HSV010-28 light chain
B2: HSV010-7: gB-1 specific mouse monoclonal IgG; IgH SEQ ID NO: 36, IgL SEQ ID NO: 38 (antibody, V domains shown)
VH: QVQLQQSGPELVKPGASVKLSCKASGYTFTNYDINWVKQRPGQGLEWIGWIYPRDGSTKYNEKFKGKATLTIDTSSSTAYMELHSLTSEDSAVYFCARGIFYVNYDVYWGQGTLVTVSAA
VL: DIQMTQSSSFLSVSLGGRVTITCKASDHINNWLAWYQQKPGHAPRLLISGAASLETGVPSRFSGSGSGKDYTLTITSLQTEDVATYYCQQYWSSPLTFGGGTKLELKR
modifications: HSV010-7 heavy chain; HSV010-7 light chain
B3: HSV010-6: gB-1 specific mouse monoclonal IgG; IgH SEQ ID NO: 44, IgL SEQ ID NO: 46 (antibody, V domains shown)
VH: QVQLQQPGAELVKPGASVKLSCKASGYTFTNYWIHWVKQRPGQGLEWIGMIHPNIGITHYSERFKSKATLTVDKSSTTAYMQLSSLTSEDSAVYYCARGSDSGSAWFAYWGQGTLVTVSAA
VL: B2 VL with F10Y, Q37L, H42N, I48M, A52T, T74S, S94T, G100A
modifications: HSV010-6 heavy chain; HSV010-6 light chain
B4: HSV010-13: gB-1 specific mouse monoclonal IgG; IgH SEQ ID NO: 52, IgL SEQ ID NO: 54 (antibody, V domains shown)
VH: B3 VH with N31S, R40G, I55S, S61N, R63K, S66T, T77S, Y94C, D101S
VL: B2 VL with F10Y, V13E, H42N, A52T, T74S, G100A
modifications: HSV010-13 heavy chain; HSV010-13 light chain
B5: HSV010-14: gB-1 specific mouse monoclonal IgG; IgH SEQ ID NO: 56, IgL SEQ ID NO: 58 (antibody, V domains shown)
VH: B3 VH with N31S, I55S, T58A, R63K, K67T, T77S, A92S, D101S
VL: B2 VL with F10Y, S26G, H42N, A52T, T74S, S94T, G100A
modifications: HSV010-14 heavy chain; HSV010-14 light chain
B6: HSV010-34: gB-1 specific mouse monoclonal IgG; IgH SEQ ID NO: 40, IgL SEQ ID NO: 42 (antibody, V domains shown)
VH: EVQLVESGGGLVQPGESLKLSCESNEYEFPSHDMSWVRKTPEKRLELVAAINSDGGSTYYPDTMERRFIISRDNTKKTLYLQMSSLRSEDTALYYCARHSSGYVLDYWGQGTSVTVSSA
VL: B2 VL with F10Y, N31H, H42N, A52T, T74S, T76A, S94T, L96Y, L106I
modifications: HSV010-34 heavy chain; HSV010-34 light chain
B7: HSV010-9: gB-1 specific mouse monoclonal IgG; IgH SEQ ID NO: 48, IgL SEQ ID NO: 50 (antibody, V domains shown)
VH: B3 VH with A24S, N31S, I34M, I55S, S61N, R63K, S66T, T77S, Y94S, D101N
VL: B2 VL with F10Y, H42N, A52T, T74S, S94T, G100A
modifications: HSV010-9 heavy chain; HSV010-9 light chain

The first test relates to HSV-2 G infected cell lysates. Put plainly: ELISA binding of recombinant antibodies to HSV-2 G infected cell lysates. Set-up: species or system HSV-2 G strain. The settings on record: Table 3 summary. The procedure: Binding of recombinant antibodies to HSV-2 G lysates was tested by ELISA. Both heavy and light chain V(D)J rearrangements were amplified from selected single B-cell culture wells (22D10, 32H6, 33B8, and 35H7) by standard RT-PCR. These cloned V(D)J rearrangements were introduced into expression vectors. Recombinant antibodies were obtained by co-transfection of these expression vectors into Expi293F cells. ≥4 mg of purified IgGs was obtained (not shown). […]
Briefly, mice were vaccinated with ΔgD-2 and then 16 days after vaccination, the draining, inguinal lymph nodes were harvested. GC B cells were isolated from these tissues and were cultured in Nojima cultures. Although overall cloning efficiency of GC B cells from these (shipped) tissues was lower than those from freshly isolated tissues (6% vs. 20%), 50 GC clones were obtained that were specific to HSV-2 G strain (HSV-2 G or HSV2-G) lysate. GC B cells from inguinal lymph nodes of mice vaccinated with ΔgD-2 were sorted directly into 96-well plates (1 cell/well). These GC B cells were then cultured in the presence of NB-21.2D9 feeder cells. After culture, presence of IgG was first determined by ELISA, and then the reactivity of culture supernatant IgG against HSV-2 G lysates (HSV-2 G) and uninfected Vero lysates were tested by ELISA.
Based on the obtained V(D)J sequences from each B-cell culture, paired heavy and light chains were re-expressed (as recombinant mouse IgG1 and IgG2c antibodies) in Expi293F cells (Kuraoka et al. Immunity 2016; DiLillo et al. Nature Medicine 2013). […] As expected, all recombinant antibodies reacted specifically with HSV-2 G lysates (FIG. 3). […] Binding of recombinant antibodies to HSV-2 G lysates was tested by ELISA. Both heavy and light chain V(D)J rearrangements were amplified from selected single B-cell culture wells (22D10, 32H6, 33B8, and 35H7) by standard RT-PCR. These cloned V(D)J rearrangements were introduced into expression vectors. Recombinant antibodies were obtained by co-transfection of these expression vectors into Expi293F cells. ≥4 mg of purified IgGs was obtained (not shown). […] These recombinant antibodies (≥4 mg each) were tested for identification of reacting antigen(s), in an in vitro FcγRIV activation assay (Promega FcγRIV ADCC Reporter Bioassay)(FIG. 4), and in vivo protection assay. […]
A general note: ELISA stands for enzyme-linked immunosorbent assay.
With B1, the “Binding to HSV-lysate” value is recorded as “Yes”.
Still for that read-out and setting: the entry for B2 is “Yes”; for B3 it is “Yes”; for B4 it is “Yes”.
On the same count and under the same terms, the entry for B5 is “Yes”; for B6 it is “Yes”.
Still for that read-out and setting: the entry for B7 is “Yes”.

In a further test the target is glycoprotein B of HSV-1 (gB-1) (Human herpesvirus 1, UniProt P10211). The experiment in a line: Luminex multiplex assay, binding to gB-1. To be noted: Table 3 summary. The method, then: FIGS. 9A and 9B are graphs of median fluorescence intensity (MFI) versus IgG concentration (ng/ml), showing the binding of various recombinant antibodies to gB-1 as measured by Luminex multiplex assay.
BMPC-23 binds HSV-1 gB (gB-1). The gB-1 binding of the antibodies was determined by Luminex multiplex assay. Mixtures of antigen (gB-1)-conjugated microspheres (1,000 counts each) were added to each well of 96-well filter plates (Millipore). After washing with PBS containing 1% BSA, 0.05% Tween 20 and 0.05% NaN3, serially diluted recombinant antibodies (5E7, 19G7, 18G4, 22E10, 3A2, 17G3, 22D10, 32H6, 33B8, 25H7, BMPC-23, and S5V2-29) were added to the plates and incubated for 2 hours at room temperature, with mild agitation of the plates. Samples were diluted in PBS containing 1% cow milk, 1% BSA, 0.05% Tween 20 and 0.05% NaN3. After washing, PE goat anti-mouse IgG was added to the plates and incubated for 1 hour at room temperature with mild agitation. After washing, microspheres were resuspended in PBS containing 1% BSA, 0.05% Tween 20 and 0.05% NaN3 and fluorescent signals from each microsphere were measured in a Bio-Plex® 3D machine.
Finding gB-1 specific HSV antibodies. After Nojima culture (single B-cell culture), HSV-specific antibodies were cloned from germinal center B cells and tested for binding to HSV-1 gB-1 by Luminex multiplex assay as described above. FIGS. 9A and 9B show the gB-1 binding results for 10 antibodies in comparison with BMPC-23. With the exception of BMPC-23, the antibodies in Table 3 were derived from germinal center B cells (lymph nodes) taken 15-17 days after primary vaccination with ΔgD-2. BMPC-23 was derived from bone marrow plasmacytes taken 2 weeks post-boost with ΔgD-2. Nucleotide sequences and amino acid sequences for the heavy-chains and light chains are shown in Table 4, as are the amino acid sequences for the light chain and heavy chain CDR1, CDR2, and CDR3.
In the case of B1, the Target antigens entry was “gB”.
With B2, the Target antigens entry is “gB”.
As for B3, the Target antigens entry was “gB”.
B4: the Target antigens entry is “gB”.
Turning to B5, the Target antigens result is given as “gB”.
For B6, the Target antigens result is reported as “gB”.
Regarding B7, the Target antigens entry is on record as “gB”.

For a further test, the target named is gB-1 (Human herpesvirus 1, UniProt P10211). Put plainly: Luminex competition: inhibition of binding of BMPC-23 human IgG to gB-1. Further details: species or system HSV-1. The settings on record: Table 3 summary. The method, then: FIGS. 10A-10G show the capacity of gB-1 specific mouse monoclonal IgG antibodies to inhibit binding of BMPC-23 human IgG antibodies to gB-1.
Finding BMPC-like antibodies. Nine out of 10 gB-1 specific mouse monoclonal IgG antibodies in FIG. 3 were tested for their capacity to inhibit binding of BMPC-23 human IgG antibodies to gB-1. Serially diluted, gB-1 specific mouse monoclonal antibodies or irrelevant, control mouse antibody (H33Lγ1) were incubated with gB-1 conjugated Luminex beads. After incubation, fixed concentration (2 ng/ml) of BMPC-23 human IgG antibodies were added to each well. After washing, mouse anti-human lgG-PE was added to detect binding of human BMPC-23 antibodies. […] Strong inhibition by HSV010-4 (>95% at 222 ng/ml), HSV010-7 (>90% at 222 ng/ml), and HSV010-34 (>80% at 222 ng/ml), shown in FIGS. 10B, 10F, and 10G, respectively, indicates these antibodies bind epitopes on gB-1 closely overlapping with the one recognized by BMPC-23. Therefore, similar protective efficacy as BMPC-23 is expected from these antibodies (experiments in progress). […] Protective efficacy of these antibodies need to be tested (experiments in progress).
In the case of B1, the “Competition with BMPC-23” value is recorded as “Weak”.
Take B2: the “Competition with BMPC-23” value is “Strong”.
Turning to B3, the “Competition with BMPC-23” value is reported as “Weak”.
Same read-out and setting: next, B4: “Weak”.
In the case of B5, the “Competition with BMPC-23” value is listed as “Weak”.
B6: the “Competition with BMPC-23” value was “Strong”.
As to B7, the “Competition with BMPC-23” value is “Weak”.
